According to publication PMC11417369, “DNA sequence and chromatin differentiate sequence-specific transcription factor binding in the human malaria parasite Plasmodium falciparum”:

T1: AP2-HC D1 (Plasmodium falciparum, UniProt Q8IKR9 1316-1374)
T1 sequence: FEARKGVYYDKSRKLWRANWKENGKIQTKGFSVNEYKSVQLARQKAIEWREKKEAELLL

B1: CACACA_negctrl_site401 (dsDNA)
DNA 1: TGTTAATATATCATTATGTTATAGGTTCAGCTGGGA
DNA 2: TCCCAGCTGAACCTATAACATAATGATATATTAACA
B2: CACACA_negctrl_site481 (dsDNA)
DNA 1: TGACTTTTTTTTTTTTTTTTTTTTTTTTATCTTTTT
DNA 2: AAAAAGATAAAAAAAAAAAAAAAAAAAAAAAAGTCA
B3: CACACA_negctrl_site1094 (dsDNA)
DNA 1: TTTTATTGTTTTTTTTTTTTTTCTTTTTTTTTTTTT
DNA 2: AAAAAAAAAAAAAGAAAAAAAAAAAAAACAATAAAA
B4: CACACA_negctrl_site279 (dsDNA)
DNA 1: TGTTTTTGTGATCATATGAAAAAATTACCTACAAGG
DNA 2: CCTTGTAGGTAATTTTTTCATATGATCACAAAAACA
B5: CACACA_negctrl_site966 (dsDNA)
DNA 1: TATTTGTTTGAATTTTTTTTTTTTTTTTTTTATGTG
DNA 2: CACATAAAAAAAAAAAAAAAAAAATTCAAACAAATA
B6: CACACA_negctrl_site758 (dsDNA)
DNA 1: TTTTAAAAAATAAAATATTATTGAAGTAAAATATGA
DNA 2: TCATATTTTACTTCAATAATATTTTATTTTTTAAAA
B7: CACACA_negctrl_site147 (dsDNA)
DNA 1: GATTACCTTTTTTTTTTTTTTTTTTTTTTTTTTTTC
DNA 2: GAAAAAAAAAAAAAAAAAAAAAAAAAAAAGGTAATC
B8: CACACA_negctrl_site485 (dsDNA)
DNA 1: AAAGTGGCCATATATTTTTTTTTTTTTTTCCTTATT
DNA 2: AATAAGGAAAAAAAAAAAAAAATATATGGCCACTTT
B9: CACACA_negctrl_site869 (dsDNA)
DNA 1: TTCTTACACAAAAAAATGAAATCAATCAAAAAAAAA
DNA 2: TTTTTTTTTGATTGATTTCATTTTTTTGTGTAAGAA
B10: CACACA_negctrl_site828 (dsDNA)
DNA 1: ATATATATATATGTTTATTTATTTGAACGATTGTGG
DNA 2: CCACAATCGTTCAAATAAATAAACATATATATATAT
B11: CACACA_negctrl_site1800 (dsDNA)
DNA 1: TTTTAACGTAATTCAAATGAGCAGAATTTTTTAAAA
DNA 2: TTTTAAAAAATTCTGCTCATTTGAATTACGTTAAAA
B12: CACACA_negctrl_site76 (dsDNA)
DNA 1: TAAATGTGAAATTTTATATTTTATATAATATACAAT
DNA 2: ATTGTATATTATATAAAATATAAAATTTCACATTTA
B13: CACACA_negctrl_site1109 (dsDNA)
DNA 1: TATATATCTGTGAAAATACTTAAATTGTTATAAAAA
DNA 2: TTTTTATAACAATTTAAGTATTTTCACAGATATATA
B14: CACACA_negctrl_site1204 (dsDNA)
DNA 1: ATTTTTTTTTTTTTTTTTCATTTTTTTTTTTTTTTT
DNA 2: AAAAAAAAAAAAAAAATGAAAAAAAAAAAAAAAAAT
B15: CACACA_negctrl_site1085 (dsDNA)
DNA 1: TATATTCAAAAAAATTCATTTCTGATTTTTTTTTTT
DNA 2: AAAAAAAAAAATCAGAAATGAATTTTTTTGAATATA
B16: CACACA_negctrl_site313 (dsDNA)
DNA 1: ATAAACAAACATAAATCTGATTTTAATTTTTTTAAG
DNA 2: CTTAAAAAAATTAAAATCAGATTTATGTTTGTTTAT
B17: CACACA_negctrl_site1488 (dsDNA)
DNA 1: AATTCTTTTTATATATTAAATATTATTAATAAGTCA
DNA 2: TGACTTATTAATAATATTTAATATATAAAAAGAATT
B18: CACACA_negctrl_site437 (dsDNA)
DNA 1: ATTATATTAATATATATATATATATATATAATAATA
DNA 2: TATTATTATATATATATATATATATATTAATATAAT
B19: CACACA_negctrl_site1459 (dsDNA)
DNA 1: AAAAATATATATATATTTCTTCTTTGTTAAAATGTA
DNA 2: TACATTTTAACAAAGAAGAAATATATATATATTTTT
B20: CACACA_negctrl_site1132 (dsDNA)
DNA 1: ATGTAATCATTTTCGACTTTTTTTTTTTTTTTTTTT
DNA 2: AAAAAAAAAAAAAAAAAAAGTCGAAAATGATTACAT
B21: CACACA_negctrl_site1471 (dsDNA)
DNA 1: TGGATTTTTTGATTTTTGTTTTTCTTCTTTCCCCCC
DNA 2: GGGGGGAAAGAAGAAAAACAAAAATCAAAAAATCCA
B22: CACACA_negctrl_site1766 (dsDNA)
DNA 1: ACACATATATATATATATATATATATATATATATAT
DNA 2: ATATATATATATATATATATATATATATATATGTGT
B23: CACACA_negctrl_site788 (dsDNA)
DNA 1: GTATATATCTAAAAATATATATATATATATATATAT
DNA 2: ATATATATATATATATATATATTTTTAGATATATAC
B24: CACACA_negctrl_site1687 (dsDNA)
DNA 1: TATTGATAATTTTATATATACATACATAAATAAATA
DNA 2: TATTTATTTATGTATGTATATATAAAATTATCAATA
B25: CACACA_negctrl_site577 (dsDNA)
DNA 1: TCATATTATAAATAAATAAATAAATATATATATATA
DNA 2: TATATATATATATTTATTTATTTATTTATAATATGA
B26: CACACA_negctrl_site1371 (dsDNA)
DNA 1: ATAATTAGTTCAATTTTTTTTTTTTTTTTTTTTTTT
DNA 2: AAAAAAAAAAAAAAAAAAAAAAATTGAACTAATTAT
B27: CACACA_negctrl_site39 (dsDNA)
DNA 1: AATATATCAAAAATTGGATAGTTTCTTATAAAAAAT
DNA 2: ATTTTTTATAAGAAACTATCCAATTTTTGATATATT
B28: CACACA_negctrl_site386 (dsDNA)
DNA 1: TCTTACAAGGAACTAATAAAATTGTAGTTTGTATTT
DNA 2: AAATACAAACTACAATTTTATTAGTTCCTTGTAAGA
B29: CACACA_negctrl_site1773 (dsDNA)
DNA 1: TGGTTATTTATCTTTATTATAAATATTTACAAATAA
DNA 2: TTATTTGTAAATATTTATAATAAAGATAAATAACCA
B30: CACACA_negctrl_site1399 (dsDNA)
DNA 1: TATTTTAATTTTTTTTTGTTTTTTCTAATACATGTA
DNA 2: TACATGTATTAGAAAAAACAAAAAAAAATTAAAATA
B31: CACACA_negctrl_site1802 (dsDNA)
DNA 1: TTATAATAAATATTTATTATATATAATATATATTAC
DNA 2: GTAATATATATTATATATAATAAATATTTATTATAA
B32: CACACA_negctrl_site1361 (dsDNA)
DNA 1: TTAAAATTCAAAAAAAAAAATCAGAATATCAGAAAA
DNA 2: TTTTCTGATATTCTGATTTTTTTTTTTGAATTTTAA

Each binder was assayed against T1, AP2-HC D1 (assay: gcPBM; about 25 ug protein; PBS, 1% milk, 0.2 mg/ml BSA, salmon testes DNA, 0.03% Triton X-100). Settings: tags: N-terminal GST (pGEX-4T-1), kept; label: surface-attached array probe.
B1 was tested, and the binding signal was 9.41 ln median PBM intensity, better of two orientations.
B2 was tested, and the binding signal was 9.43 ln median PBM intensity, better of two orientations.
B3 was tested, and the binding signal was 9.39 ln median PBM intensity, better of two orientations.
With B4 the binding signal was 9.38 ln median PBM intensity, better of two orientations.
B5 was tested, and the binding signal was 9.38 ln median PBM intensity, better of two orientations.
With B6 the binding signal was 9.36 ln median PBM intensity, better of two orientations.
B7 was tested, and the binding signal was 9.37 ln median PBM intensity, better of two orientations.
With B8 the binding signal was 9.44 ln median PBM intensity, better of two orientations.
For B9, the binding signal was 9.37 ln median PBM intensity, better of two orientations.
In the case of B10, the binding signal is reported as 9.44 ln median PBM intensity, better of two orientations.
With B11 the binding signal was 9.36 ln median PBM intensity, better of two orientations.
With B12 the binding signal was 9.39 ln median PBM intensity, better of two orientations.
B13 was tested, and the binding signal was 9.44 ln median PBM intensity, better of two orientations.
With B14 the binding signal was 9.43 ln median PBM intensity, better of two orientations.
With B15 the binding signal was 9.44 ln median PBM intensity, better of two orientations.
In the case of B16, the binding signal is reported as 9.42 ln median PBM intensity, better of two orientations.
In the case of B17, the binding signal is reported as 9.39 ln median PBM intensity, better of two orientations.
In the case of B18, the binding signal is reported as 9.4 ln median PBM intensity, better of two orientations.
B19 was tested, and the binding signal was 9.42 ln median PBM intensity, better of two orientations.
With B20 the binding signal was 9.38 ln median PBM intensity, better of two orientations.
For B21, the binding signal was 9.4 ln median PBM intensity, better of two orientations.
For B22, the binding signal was 9.45 ln median PBM intensity, better of two orientations.
For B23, the binding signal was 9.43 ln median PBM intensity, better of two orientations.
For B24, the binding signal was 9.44 ln median PBM intensity, better of two orientations.
For B25, the binding signal was 9.41 ln median PBM intensity, better of two orientations.
With B26 the binding signal was 9.38 ln median PBM intensity, better of two orientations.
B27 was tested, and the binding signal was 9.45 ln median PBM intensity, better of two orientations.
For B28, the binding signal was 9.42 ln median PBM intensity, better of two orientations.
B29 was tested, and the binding signal was 9.44 ln median PBM intensity, better of two orientations.
With B30 the binding signal was 9.45 ln median PBM intensity, better of two orientations.
With B31 the binding signal was 9.39 ln median PBM intensity, better of two orientations.
For B32, the binding signal was 9.36 ln median PBM intensity, better of two orientations.
